Experimental data published in paper PMC7954794, “Protein context shapes the specificity of SH3 domain-mediated interactions in vivo” (Nature Communications, 2021).

B1: YKL129C_1 (protein, UniProt P36006 1-1272, looked up)
Myosin-3: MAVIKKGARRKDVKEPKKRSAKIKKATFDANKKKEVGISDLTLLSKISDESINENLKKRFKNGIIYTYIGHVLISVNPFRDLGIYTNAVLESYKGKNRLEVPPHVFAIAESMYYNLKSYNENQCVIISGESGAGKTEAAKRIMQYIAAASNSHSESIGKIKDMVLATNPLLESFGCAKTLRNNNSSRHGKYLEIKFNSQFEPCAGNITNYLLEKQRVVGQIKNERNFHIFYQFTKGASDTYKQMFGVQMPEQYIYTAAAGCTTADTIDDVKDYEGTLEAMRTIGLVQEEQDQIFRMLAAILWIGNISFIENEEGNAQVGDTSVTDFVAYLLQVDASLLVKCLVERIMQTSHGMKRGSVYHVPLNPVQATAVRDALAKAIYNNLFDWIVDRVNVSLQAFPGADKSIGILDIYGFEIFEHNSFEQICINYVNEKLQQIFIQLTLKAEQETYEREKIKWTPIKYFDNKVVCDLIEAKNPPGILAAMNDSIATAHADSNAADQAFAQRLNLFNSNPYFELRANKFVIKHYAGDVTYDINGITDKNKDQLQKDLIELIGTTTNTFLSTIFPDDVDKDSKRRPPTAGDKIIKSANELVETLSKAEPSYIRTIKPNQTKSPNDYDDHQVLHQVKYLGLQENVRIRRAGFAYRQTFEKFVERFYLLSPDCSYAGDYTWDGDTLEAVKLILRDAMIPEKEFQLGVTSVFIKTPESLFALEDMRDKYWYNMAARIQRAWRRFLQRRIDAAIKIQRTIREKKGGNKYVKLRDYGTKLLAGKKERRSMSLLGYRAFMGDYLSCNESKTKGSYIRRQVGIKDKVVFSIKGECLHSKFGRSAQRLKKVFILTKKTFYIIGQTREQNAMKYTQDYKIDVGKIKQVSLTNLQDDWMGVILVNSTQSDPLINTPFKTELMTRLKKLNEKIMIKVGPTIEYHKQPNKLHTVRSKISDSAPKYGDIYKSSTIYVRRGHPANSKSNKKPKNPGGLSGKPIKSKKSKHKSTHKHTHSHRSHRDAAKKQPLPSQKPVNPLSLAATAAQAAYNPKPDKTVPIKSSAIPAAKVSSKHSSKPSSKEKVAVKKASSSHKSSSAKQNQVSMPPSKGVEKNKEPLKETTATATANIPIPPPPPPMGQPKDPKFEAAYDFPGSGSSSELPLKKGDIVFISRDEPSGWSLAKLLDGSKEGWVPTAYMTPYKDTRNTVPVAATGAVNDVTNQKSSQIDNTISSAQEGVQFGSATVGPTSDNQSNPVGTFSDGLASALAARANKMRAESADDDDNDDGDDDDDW
B2: YLR332W_1 (protein, UniProt P36027 26-376, looked up)
Cell wall integrity sensor …: QFFVQSSSSNSSAVSTARSSVSRVSSSSSILSSSMVSSSSADSSSLTSSTSSRSLVSHTSSSTSIASISFTSFSFSSDSSTSSSSSASSDSSSSSSFSISSTSATSESSTSSTQTSTSSSSSLSSTPSSSSSPSTITSAPSTSSTPSTTAYNQGSTITSIINGKTILSNHYTTVTYTPSATADSSNKSKSSGLSKKNRNIVIGCVVGIGVPLILVILALIYMFCIQSSRTDFIDSDGKVVTAYRANKFTKWWYMLLGKKVSDEYHSDSPLGGSASSAGGLDLDEADDVMEQSSLFDVRIRDSDSVLPNANTADHNNTNSGGEPINSSVASNDIIEEKFYDEQGNELSPRNY
B3: YHR016C_1 (protein, UniProt P32793 1-468, looked up)
Protein YSC84: MGINNPIPRSLKSETKKAAKVLRSFVKPNQVFGADQVIPPYVLKRAKGLAIITVLKAGFLFSGRAGSGVIVARLKDGTWSAPSAIAMAGAGAGGMVGVELTDFVFILNSEEAVRSFSEFGTITLGGNVSVSAGPLGRSAEAAASASTGGVSAVFAYSKSKGLFAGVSVEGSAILERREANRKFYGDNCTSKMILSGRVKVPPAADPLLRILESRAFNFTRHDHDDNASGDDFYDDGQYSDNTSHYYDDIPDSFDSTDESSTRPNTRSSRRRGMSLGSRSRYDDDYDDDGYGRGRGYGDFDSEDEDYDYGRSPNRNSSRNRGPQIDRGTKPRANTRWEDDLYDRDTEYSRPNHSGRDYDNTRGNRRGYGRERGYSLGHGPTHPSNMSNVDDLSHKMSKTGLGNESTATNSATPTAVALYNFAGEQPGDLAFKKGDVITILKKSDSQNDWWTGRTNGKEGIFPANYVRVS
B4: YNL229C_1 (protein, UniProt P23202 2-354, looked up)
Transcriptional regulator URE2: MNNNGNQVSNLSNALRQVNIGNRNSNTTTDQSNINFEFSTGVNNNNNNNSSSNNNNVQNNNSGRNGSQNNDNENNIKNTLEQHRQQQQAFSDMSHVEYSRITKFFQEQPLEGYTLFSHRSAPNGFKVAIVLSELGFHYNTIFLDFNLGEHRAPEFVSVNPNARVPALIDHGMDNLSIWESGAILLHLVNKYYKETGNPLLWSDDLADQSQINAWLFFQTSGHAPMIGQALHFRYFHSQKIASAVERYTDEVRRVYGVVEMALAERREALVMELDTENAAAYSAGTTPMSQSRFFDYPVWLVGDKLTIADLAFVPWNNVVDRIGINIKIEFPEVYKWTKHMMRRPAVIKALRGE
B5: YCR009C_1 (protein, UniProt P25343 1-265, looked up)
Reduced viability upon …: MSWEGFKKAINRAGHSVIIKNVDKTIDKEYDMEERRYKVLQRAGEALQKEAKGFLDSLRAVTASQTTIAEVISNLYDDSKYVAGGGYNVGNYYLQCVQDFDSETVKQLDGPLRETVLDPITKFSTYFKEIEEAIKKRDHKKQDFDAAKAKVRRLVDKPAKDASKLPRAEKELSLAKDIFENLNNQLKTELPQLVSLRVPYFDPSFEALIKIQLRFCTDGYTRLAQIQQYLDQQSRDDYANGLLDTKIEELLGQMTSLDICALGIK
B6: YLR258W_2 (protein, UniProt P27472 1-705, looked up)
Glycogen [starch] synthase …: MSRDLQNHLLFETATEVANRVGGIYSVLKSKAPITVAQYKDHYHLIGPLNKATYQNEVDILDWKKPEAFSDEMRPVQHALQTMESRGVHFVYGRWLIEGAPKVILFDLDSVRGYSNEWKGDLWSLVGIPSPENDFETNDAILLGYTVAWFLGEVAHLDSQHAIVAHFHEWLAGVALPLCRKRRIDVVTIFTTHATLLGRYLCASGSFDFYNCLESVDVDHEAGRFGIYHRYCIERAAAHSADVFTTVSQITAFEAEHLLKRKPDGILPNGLNVIKFQAFHEFQNLHALKKEKINDFVRGHFHGCFDFDLDNTLYFFIAGRYEYKNKGADMFIEALARLNYRLKVSGSKKTVVAFIVMPAKNNSFTVEALKGQAEVRALENTVHEVTTSIGKRIFDHAIRYPHNGLTTELPTDLGELLKSSDKVMLKRRILALRRPEGQLPPIVTHNMVDDANDLILNKIRQVQLFNSPSDRVKMIFHPEFLNANNPILGLDYDEFVRGCHLGVFPSYYEPWGYTPAECTVMGVPSITTNVSGFGAYMEDLIETNQAKDYGIYIVDRRFKAPDESVEQLVDYMEEFVKKTRRQRINQRNRTERLSDLLDWKRMGLEYVKARQLALRRGYPDQFRELVGEELNDSNMDALAGGKKLKVARPLSVPGSPRDLRSNSTVYMTPGDLGTLQEVNNADDYFSLGVNPAADDDDDGPYADDS
B7: YLR144C_1 (protein, UniProt Q12168 1-779, looked up)
Glucan …: MCYSRQAIPPPVPNRPGGTTNRGPPPLPPRANVQPPVCSSENSSKPRENRVAGESLRTPSSSNPLADSQVNSDNIFQSPVLSNLKAPPSVFNKVQHPVPKPNIDDQSVDPLETNKFYTNMLLDDNTQPIWTHPYSIWFSRDPELFGLAANHTLASQRVFDTTTNPPRFYFNPTNIKSFVFKAREFVSSNDIKLEFRDMKHMSMCLLMSLSSSQFIEFPLVQGMGFVTAIYHDLGFELRSAVGFRSLERISVNERYGKYNIQLENNRNWILYLTSPDYSFPQDFQISLLDSNTIISSHKINGLICQLSADSVPSIDMAAGCYPVYCDLSGQTVDEHFTNYRFNYTVAGYSQSGTTLMYALPHHKAAFTPEMQEREIASSLDSTVKGLMTGYLTNSFDMQVQVPQELGFEPVALSLNKKADYSQEKLSKIREAAVQEVQLSDPQQESNIDSMYFSGKILAKYAWILYVTHYILHDENLTKELLSKLTIAMERFISNQQVLPLNYDVSWKGIISSGSSSQDFGNSYYNDHHFHYSYHVITAAIISLVDSDLSGVTNNSWLENNRDWVECLIRDYSGVDNDDPYFPQFRSFDWFNGHSWAKGLFPSGDGKDEESTSEDVNSCYAIKLWGLVTGNSKLTDIANLQLGIMRNVFQSYFLYESNNTVQPKEFIGNKVSGILFENKIDHATYFGMEPQYIHMIHAIPITSASSWVRTPNFVKEEWEEKMQPIIDQVNDGWKGIIMLNMALLDPKFSYDFFSQPDFNRNFLDNGQSLTWSLAYSGAFS
B8: YNL084C_1 (protein, UniProt P39013 1-349, looked up)
Actin cytoskeleton-regulatory …: MPKLEQFEIKKYWQIFSGLKPIENKVNHDQVLPILYNSKLDSSVLNKIWFLADIDDDDNLDFEEFVICMRLIFDMVNKNISSVPDELPDWLIPGSKVNLIKERKKRKQIENADLPPKKEIKVDWYMSPDDLNQYEKIYNSCAKLTDGTITFNELSTKLSTKFFNISKTDLNKVWSLINPQNLPSIDRDPTFYFIHCLRQRNDLGAEIPASLPNSLAEVCNKKQLSYDLRSSQPPTKRKEEANEVDNLRDNGQNSSSDSSGSNVLSNEDSIKQKYASLTDDQVANMREQLEGLLNYKKSEKTQGGSKLSKRINIRSITDDLDNIEQQVEVLENYLNNKRHELQALQAEIN
B9: YGR037C_1 (protein, UniProt P31787 1-87, looked up)
Acyl-CoA-binding protein: MVSQLFEEKAKAVNELPTKPSTDELLELYALYKQATVGDNDKEKPGIFNMKDRYKWEAWENLKGKSQEDAEKEYIALVDQLIAKYSS

Tested on: PPIs identified as affected by the SH3 domain deletions
Assay: Liquid DHFR-PCA low-throughput validation of PPIs affected by SH3 deletion (Fig. S1D-E)
Type: cell-based, Saccharomyces cerevisiae
Details: label = prey, liquid DHFR-PCA, prey _1 = lost, _2 = gained in screen
How it was run: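 Yeast diploids from DHFR-PCA mating grown 48 h in synthetic complete MSG medium pH 6.0 with NAT and HPH, normalized to 1 OD and diluted to 0.1 OD in liquid PCA selection medium. Growth followed by OD every 15 min for 72 h at 30 °C.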

Molecule | Ratio (Deletedscore / WTscore) (bait MYO5) | Ratio (Deletedscore / WTscore) (bait LSB1) | Ratio (Deletedscore / WTscore) (bait LSB3) | also measured
B1 |  |  |  | Ratio (Deletedscore / WTscore) (bait BZZ1-1): 0.69; Ratio (Deletedscore / WTscore) (bait PIN3): 0.7986
B2 |  |  |  | Ratio (Deletedscore / WTscore) (bait CDC25): 0.4625; Ratio (Deletedscore / WTscore) (bait NBP2): 0.9277
B3 | 0.6586 |  |  | Ratio (Deletedscore / WTscore) (bait HOF1): 0.9486; Ratio (Deletedscore / WTscore) (bait RVS167): 0.5834
B4 |  | 1.043 |  | 
B5 | 0.8072 | 0.9386 | 0.7612 | Ratio (Deletedscore / WTscore) (bait MYO3): 0.6894
B6 |  |  |  | Ratio (Deletedscore / WTscore) (bait ABP1): 1.221
B7 |  | 1.001 | 0.9902 | Ratio (Deletedscore / WTscore) (bait PIN3): 0.9919
B8 | 0.7027 | 0.7759 | 0.8689 | Ratio (Deletedscore / WTscore) (bait MYO3): 0.5035
B9 |  | 1.041 |  | 
